Measurements from US6979673B1, “Method and compositions for modulating somatolactogenic functions” (Trustees of the University of Pennsylvania, priority 1999, dated 2005).

Tested on: Nb2 cells
Experiment: PRL-driven proliferation of Nb2 cells (3H-thymidine)
Format: cell-based, rat
Procedure: The effect of exogenous CypB on PRL-driven proliferation was examined with the rat Nb2 T-cell and the human T47D breast cancer line. […] This dose-dependent biphasic effect was most prominent at physiologic concentrations ([…]) of CypB and PRL (50 pM) found in human serum. […] To determine the effect of CypB on cellular growth driven by the larger family of cytokines, to which PRL belongs, proliferation driven by interleukin-2 (IL-2), IL-3 and GH was examined.
Nb2-cells (5×10^4; PRL-dependent, rat T-lymphoma) were plated in each well of 96 well plates in a defined DMEM-serum free medium (0.1 mM 2-mercaptoethanol, 1% penicillin/streptomycin, and 1% ITS+ (Calbiochem)). Cells were rested for 24 hours at 37° C. in this defined medium in the absence of PRL before the addition of 5–500 pM PRL (either as human pituitary isolated PRL, National Hormone and Pituitary Program, NIDDK; recombinant human PRL from E. coli, Genzyme; or recombinant human PRL from Drosophila S2 cells) alone or premixed with 1–2000 fold excess of purified CypB. Parallel studies were performed using human pituitary-derived GH (National Hormone and Pituitary Program, NIDDK). Cultures were incubated for 48 hours at 37° C. and proliferation was evaluated by the addition of 0.5 μCi of ^3H-thymidine for four hours followed by harvesting and scintillography. […]

Molecule | bioactivity in Nb2 bioassays (protein expressed in Drosophila S2 cells) | PRL concentration at which Nb2 growth curves plateau (PRL alone, sigmoid shaped growth curves)
Myc-tagged PRL: recombinant myc-tagged human PRL expressed and secreted by Drosophila S2 cells (protein, left off: small tags and cut ends, recombinant myc-tagged human PRL expressed and secreted by Drosophila S2 cells) LPICPGGAARCQVTLRDLFDRAVVLSHYIHNLSSEMFSEFDKRYTHGRGFITKAINSCHTSSLATPEDKEQAQQMNQKDFLSLIVSILRSWNEPLYHLVTEVRGMQEAPEAILSKAVEIEEQTKRLLEGMELIVSQVHPETKENEIYPVWSGLPSLQMADEESRLSAYYNLLHCLRRDSHKIDNYLKLLKCRIIHNNNC | functionally bioactive | 
PRL: somatolactogenic hormone prolactin; human pituitary isolated or recombinant human PRL (protein, left off: small tags and cut ends) LPICPGGAARCQVTLRDLFDRAVVLSHYIHNLSSEMFSEFDKRYTHGRGFITKAINSCHTSSLATPEDKEQAQQMNQKDFLSLIVSILRSWNEPLYHLVTEVRGMQEAPEAILSKAVEIEEQTKRLLEGMELIVSQVHPETKENEIYPVWSGLPSLQMADEESRLSAYYNLLHCLRRDSHKIDNYLKLLKCRIIHNNNC |  | approximately 2 ng PRL/ml
